Measurements taken from paper PMC12790879.

Molecular target: RHT1‐GRAS (truncated DELLA protein containing only the C‐terminal GRAS domain) (wheat (Triticum turgidum ssp. durum, cultivar Kronos))
Assay: two-hybrid; yeast-three-hybrid (Y3H), quantitative alpha-galactosidase activity; DELLA-GRAS as AD, SPL3 or SPL4 as BD, VRN1 or FUL2 expressed as third protein; Method S10

“FUL2 expressed as the third protein in the yeast‐three‐hybrid system (natural protein)” gave a percent decrease of the DELLA-SPL3 interaction (m1 with m2) when expressed as third protein of 60% and a percent decrease of the DELLA-SPL4 interaction (m1 with m3) when expressed as third protein of 55%.

“VRN1 expressed as the third protein in the yeast‐three‐hybrid system (natural protein)” showed a percent decrease of the DELLA-SPL3 interaction (m1 with m2) when expressed as third protein of 48% and a percent decrease of the DELLA-SPL4 interaction (m1 with m3) when expressed as third protein of 36%.
